In patent publication US20200223912A1 (Hoffmann-La Roche, published 2020):
Where a chain is given by its changes, count along the chain named. One block for each binder: values may come before it.

Target: T1, full length human Tau (not phosphorylated) (human, UniProt P10636 1-758)
T1 construct: Human Tau isoform F, 441 residues; also called full length tau; Tau protein
Experiment: Western blot on recombinant Tau, all antibodies 1 ug/ml

T1 sequence (P10636 other isoform, or with tags, fused parts or gaps limits assumed): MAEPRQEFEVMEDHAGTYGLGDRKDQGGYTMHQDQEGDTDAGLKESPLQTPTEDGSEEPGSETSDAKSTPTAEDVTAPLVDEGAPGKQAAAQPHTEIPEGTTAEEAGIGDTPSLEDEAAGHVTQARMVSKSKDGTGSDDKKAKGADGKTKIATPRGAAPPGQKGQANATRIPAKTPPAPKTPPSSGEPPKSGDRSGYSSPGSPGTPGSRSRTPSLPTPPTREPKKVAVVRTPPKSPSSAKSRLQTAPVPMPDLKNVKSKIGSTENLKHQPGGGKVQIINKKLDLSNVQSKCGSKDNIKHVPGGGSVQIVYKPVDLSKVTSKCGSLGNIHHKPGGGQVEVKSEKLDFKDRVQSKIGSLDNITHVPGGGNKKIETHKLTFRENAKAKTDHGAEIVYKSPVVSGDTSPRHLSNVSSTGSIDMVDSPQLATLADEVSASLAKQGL

binding result: no binding (tested: 1 ug/ml)
B1: VH32/VL21 (antibody, V domains shown)
VH: EVQVLESGGGLVQPGGSLRLSCAVSGFSLSSNAINWVRQAPGKGLEWVGYIAVSGNTYYASWAKGRFTISRDNSKNTVYLQMNSLRAEDTAVYYCGKSNIWGQGTLVTVSS
VL: AQVMTQSPSSLSASVGDRVTITCRSSQSVRTNKLAWFQQKPGQPPKRLIYSASTLDFGVPSRFSGSGSGTEFTLTISSLQPEDFATYYCLGYFDSSADIVAFGGGTKVEIK

binding result: no binding (tested: 1 ug/ml)
B2: VH32/VL22 (antibody, V domains shown)
VH: B1 VH
VL: B1 VL with K33R, F57Y
